Reference: publication PMC11594316, “Novel DNA Aptamers to Dickkopf-1 Protein and Their Application in Colorimetric Sandwich Assays for Target Detection in Patients with Axial Spondyloarthritis”

T1: Dickkopf-1 (DKK-1) (human, UniProt O94907 32-266)
T1 sequence: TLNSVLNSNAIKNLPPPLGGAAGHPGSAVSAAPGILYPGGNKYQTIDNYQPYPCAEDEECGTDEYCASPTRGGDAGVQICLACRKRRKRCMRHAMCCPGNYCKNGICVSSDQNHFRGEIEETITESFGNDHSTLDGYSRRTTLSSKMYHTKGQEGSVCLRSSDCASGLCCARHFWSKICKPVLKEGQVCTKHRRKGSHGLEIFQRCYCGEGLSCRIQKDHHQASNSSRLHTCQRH


Molecular target: T1, Dickkopf-1 (DKK-1)
Assay: ELASA; ELASA: DKK-1 coated at 2 ug/mL, BSA-blocked; aptamer 3.12-100 nM in PBSMT (1x PBS pH 7.4, 5 mM MgCl2, 0.05% Tween 20), 1 h, 25 C
Conditions: protein: commercial, tags: N-terminal His-tag (stated for the selection protein), label: biotin

Binder	Kd (three-way junction) [nM]	Kd (stem-loop) [nM]
CGGTGTACCCGCATAGACCCTGCGTCCGCTGTATGTACACGTAAGCCG (ssDNA, 3'-amino linker (C6, Spacer 18)) [DK2_48t]	3.3 ± 2	–
CACGACTCGGAGTGCGTACAGCAAGCACATATGTGCTCTCCCAGAGCGTG (ssDNA, 3'-amino linker (C6, Spacer 18)) [DK4_50t]	6.1 ± 2	–
DK2_58t (ssDNA, 3'-amino linker (C6, Spacer 18)) DNA: CGACTCGGTGTACCCGCATAGACCCTGCGTCCGCTGTATGTACACGTAAGCCCTGTCG	3.6 ± 2	–
CGGCATGTATCTGGCTGCTGAGTGTACGATTCCAGTATATATGAGCCG (ssDNA, 3'-amino linker (C6, Spacer 18)) [DK1_48t]	–	10 ± 6
CCTCGGAGTGCGTACAGCAAGCACATATGTGCTCTCCCAGG (ssDNA, 3'-amino linker (C6, Spacer 18)) [DK4_41t]	5.6 ± 3	–
